Assay results as given in article PMC3195444 (Biochemical Journal, 2011).
Where “and” joins values, the source holds several entries; their conditions need not be identical. Equal values may be shown once.

B1: RGL1 (REPRESSOR OF GA1-3-LIKE 1), Gal4 activation domain fusion (natural protein)
chain: MKREHNHRESSAGEGGSSSMTTVIKEEAAGVDELLVVLGYKVRSSDMADVAHKLEQLEMVLGDGISNLSDETVHYNPSDLSGWVESMLSDLDPTRIQEKPDSEYDLRAIPGSAVYPRDEHVTRRSKRTRIESELSSTRSVVVLDSQETGVRLVHALLACAEAVQQNNLKLADALVKHVGLLASSQAGAMRKVATYFAEGLARRIYRIYPRDDVALSSFSDTLQIHFYESCPYLKFAHFTANQAILEVFATAEKVHVIDLGLNHGLQWPALIQALALRPNGPPDFRLTGIGYSLTDIQEVGWKLGQLASTIGVNFEFKSIALNNLSDLKPEMLDIRPGLESVAVNSVFELHRLLAHPGSIDKFLSTIKSIRPDIMTVVEQEANHNGTVFLDRFTESLHYYSSLFDSLEGPPSQDRVMSELFLGRQILNLVACEGEDRVERHETLNQWRNRFGLGGFKPVSIGSNAYKQASMLLALYAGADGYNVEENEGCLLLGWQTRPLIATSAWRINRVE
B2: MBP–RGL1^N (RGL1^1–137, N-terminal or DELLA domain of RGL1, MBP fusion) (domain or fragment)
chain: MKREHNHRESSAGEGGSSSMTTVIKEEAAGVDELLVVLGYKVRSSDMADVAHKLEQLEMVLGDGISNLSDETVHYNPSDLSGWVESMLSDLDPTRIQEKPDSEYDLRAIPGSAVYPRDEHVTRRSKRTRIESELSST

Key:
[1] = biological target: T1, sly1^E138K, Gal4 DNA-binding domain fusion (Arabidopsis thaliana, UniProt Q9STX3 1-151, E138K); assay: yeast three-hybrid
T1 sequence: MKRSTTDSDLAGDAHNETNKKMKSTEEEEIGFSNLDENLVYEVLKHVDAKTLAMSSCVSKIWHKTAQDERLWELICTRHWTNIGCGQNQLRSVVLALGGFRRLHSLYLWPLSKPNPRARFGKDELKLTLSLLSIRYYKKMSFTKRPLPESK

[2] = biological target: T2, MBP–GID1A (GIBBERELLIC ACID-… DWARF-1A, MBP fusion) (Arabidopsis thaliana, UniProt Q9MAA7 1-345); assay: SPR
T2 sequence: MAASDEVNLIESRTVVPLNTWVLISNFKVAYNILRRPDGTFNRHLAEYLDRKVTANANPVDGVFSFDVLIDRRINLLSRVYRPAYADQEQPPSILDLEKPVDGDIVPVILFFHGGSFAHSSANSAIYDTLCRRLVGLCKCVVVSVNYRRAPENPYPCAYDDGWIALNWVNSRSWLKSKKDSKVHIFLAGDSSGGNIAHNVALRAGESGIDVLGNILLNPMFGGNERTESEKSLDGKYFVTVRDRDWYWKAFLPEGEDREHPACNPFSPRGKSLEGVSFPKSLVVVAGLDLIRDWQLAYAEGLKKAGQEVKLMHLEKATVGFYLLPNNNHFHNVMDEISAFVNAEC

Row | Binder | fold recruitment against the ΔDELLA mutant in the presence of GID1A/GA3 [1] [fold] | Ka [2]
1 | B1 | 4 | 
2 | B2 |  | 5.73e+08 M⁻¹ and 3.58e+08 M⁻¹ and 6.49e+08 M⁻¹
